Here are results for 8 molecules from patent publication US20220017591A1 (AstraZeneca / MedImmune, published 2022).

Substitutions are numbered along the chain they refer to.

First the molecules themselves.
T1: human RXFP1 (human, UniProt Q9HBX9 1-757)
T1 sequence (looked up): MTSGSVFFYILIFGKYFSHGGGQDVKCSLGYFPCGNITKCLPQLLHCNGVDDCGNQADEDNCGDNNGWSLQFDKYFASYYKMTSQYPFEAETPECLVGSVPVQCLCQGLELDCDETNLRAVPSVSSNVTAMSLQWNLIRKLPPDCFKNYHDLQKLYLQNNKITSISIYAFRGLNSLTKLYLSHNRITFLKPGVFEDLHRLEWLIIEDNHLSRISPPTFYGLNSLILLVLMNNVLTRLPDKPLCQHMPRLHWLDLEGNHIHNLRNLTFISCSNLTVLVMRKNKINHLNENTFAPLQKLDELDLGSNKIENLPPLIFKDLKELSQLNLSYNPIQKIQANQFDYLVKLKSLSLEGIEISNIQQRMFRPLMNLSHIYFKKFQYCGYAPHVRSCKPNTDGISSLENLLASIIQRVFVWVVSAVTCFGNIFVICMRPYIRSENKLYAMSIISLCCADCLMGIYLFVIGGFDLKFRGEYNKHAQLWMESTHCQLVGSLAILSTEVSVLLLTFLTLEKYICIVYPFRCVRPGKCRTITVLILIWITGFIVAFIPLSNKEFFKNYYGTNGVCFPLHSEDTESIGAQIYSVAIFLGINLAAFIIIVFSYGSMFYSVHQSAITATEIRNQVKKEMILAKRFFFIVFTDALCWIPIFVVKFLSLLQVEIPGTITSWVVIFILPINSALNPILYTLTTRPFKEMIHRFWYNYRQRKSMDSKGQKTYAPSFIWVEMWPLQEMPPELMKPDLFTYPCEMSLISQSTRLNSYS

T2: mouse RXFP1 (mouse, UniProt Q6R6I7 1-758)
T2 sequence (looked up): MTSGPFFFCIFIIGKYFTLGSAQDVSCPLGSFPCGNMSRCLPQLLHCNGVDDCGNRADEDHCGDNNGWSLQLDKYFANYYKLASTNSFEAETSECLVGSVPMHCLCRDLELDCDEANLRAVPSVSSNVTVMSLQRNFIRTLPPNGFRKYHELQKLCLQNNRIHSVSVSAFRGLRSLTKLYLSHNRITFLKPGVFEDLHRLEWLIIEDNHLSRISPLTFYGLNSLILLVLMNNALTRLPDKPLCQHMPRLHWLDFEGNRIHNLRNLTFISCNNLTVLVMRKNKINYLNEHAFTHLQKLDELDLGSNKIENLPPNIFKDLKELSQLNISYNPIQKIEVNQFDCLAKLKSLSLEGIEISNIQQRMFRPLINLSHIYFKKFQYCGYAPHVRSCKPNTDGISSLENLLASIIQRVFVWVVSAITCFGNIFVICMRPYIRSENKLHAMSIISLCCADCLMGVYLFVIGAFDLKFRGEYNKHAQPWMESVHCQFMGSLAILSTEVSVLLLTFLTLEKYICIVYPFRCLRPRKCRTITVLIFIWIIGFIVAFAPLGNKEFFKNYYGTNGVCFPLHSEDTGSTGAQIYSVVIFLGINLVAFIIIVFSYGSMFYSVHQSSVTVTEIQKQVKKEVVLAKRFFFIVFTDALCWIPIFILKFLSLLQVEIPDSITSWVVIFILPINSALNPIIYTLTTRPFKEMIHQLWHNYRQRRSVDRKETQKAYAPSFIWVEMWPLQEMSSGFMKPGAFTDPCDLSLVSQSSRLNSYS

B1: RELAX0082 (Fc fusion)
chain 1: DKTHTCPPCPAPEFEGGPSVFLFPPKPKDTLMISRTPEVTCVVVDVSHEDPEVKFNWYVDGVEVHNAKTKPREEQYNSTYRVVSVLTVLHQDWLNGKEYKCKVSNKALPASIEKTISKAKGQPREPQVYTLPPCREEMTKNQVSLWCLVKGFYPSDIAVEWESNGQPENNYKTTPPVLDSDGSFFLYSKLTVDKSRWQQGNVFSCSVMHEALHNHYTQKSLSLSPGGGGGSGGGGGSQLYSALANKCCHVGCTKRSLARFC
chain 2: DKTHTCPPCPAPEFEGGPSVFLFPPKPKDTLMISRTPEVTCVVVDVSHEDPEVKFNWYVDGVEVHNAKTKPREEQYNSTYRVVSVLTVLHQDWLNGKEYKCKVSNKALPASIEKTISKAKGQPREPQVCTLPPSREEMTKNQVSLSCAVKGFYPSDIAVEWESNGQPENNYKTTPPVLDSDGSFFLVSKLTVDKSRWQQGNVFSCSVMHEALHNHYTQKSLSLSPGGGGGSGGGGGSSWMEEVIKLCGRELVRAQIAICGMSTWS
B2: RELAX0055 (Fc fusion)
chain 1: B1 chain 1 with G227A, G228P, G229A, G230P, S231A, G232P, G233A, G234P, G235A
chain 2: B1 chain 2 with G227A, G228P, G229A, G230P, S231A, G232P, G233A, G234P, G235A
B3: RELAX0081 (Fc fusion)
chain 1: DKTHTCPPCPAPEFEGGPSVFLFPPKPKDTLMISRTPEVTCVVVDVSHEDPEVKFNWYVDGVEVHNAKTKPREEQYNSTYRVVSVLTVLHQDWLNGKEYKCKVSNKALPASIEKTISKAKGQPREPQVYTLPPCREEMTKNQVSLWCLVKGFYPSDIAVEWESNGQPENNYKTTPPVLDSDGSFFLYSKLTVDKSRWQQGNVFSCSVMHEALHNHYTQKSLSLSPGGGGGSGGGGSGGGGGSQLYSALANKCCHVGCTKRSLARFC
chain 2: DKTHTCPPCPAPEFEGGPSVFLFPPKPKDTLMISRTPEVTCVVVDVSHEDPEVKFNWYVDGVEVHNAKTKPREEQYNSTYRVVSVLTVLHQDWLNGKEYKCKVSNKALPASIEKTISKAKGQPREPQVCTLPPSREEMTKNQVSLSCAVKGFYPSDIAVEWESNGQPENNYKTTPPVLDSDGSFFLVSKLTVDKSRWQQGNVFSCSVMHEALHNHYTQKSLSLSPGGGGGSGGGGSGGGGGSSWMEEVIKLCGRELVRAQIAICGMSTWS
B4: RELAX0109 (Fc fusion)
chain 1: B3 chain 1
chain 2: DKTHTCPPCPAPEFEGGPSVFLFPPKPKDTLMISRTPEVTCVVVDVSHEDPEVKFNWYVDGVEVHNAKTKPREEQYNSTYRVVSVLTVLHQDWLNGKEYKCKVSNKALPASIEKTISKAKGQPREPQVYTLPPCREEMTKNQVSLWCLVKGFYPSDIAVEWESNGQPENNYKTTPPVLDSDGSFFLYSKLTVDKSRWQQGNVFSCSVMHEALHNHYTQKSLSLSPGAAPAPAPAPAPAPAGSSWMEEVIKLCGRELVRAQIAICGMSTWS
B5: RELAX0056 (Fc fusion)
chain 1: DKTHTCPPCPAPEFEGGPSVFLFPPKPKDTLMISRTPEVTCVVVDVSHEDPEVKFNWYVDGVEVHNAKTKPREEQYNSTYRVVSVLTVLHQDWLNGKEYKCKVSNKALPASIEKTISKAKGQPREPQVYTLPPCREEMTKNQVSLWCLVKGFYPSDIAVEWESNGQPENNYKTTPPVLDSDGSFFLYSKLTVDKSRWQQGNVFSCSVMHEALHNHYTQKSLSLSPGAPAPAPAPAPAPAPAPAPAGSQLYSALANKCCHVGCTKRSLARFC
chain 2: DKTHTCPPCPAPEFEGGPSVFLFPPKPKDTLMISRTPEVTCVVVDVSHEDPEVKFNWYVDGVEVHNAKTKPREEQYNSTYRVVSVLTVLHQDWLNGKEYKCKVSNKALPASIEKTISKAKGQPREPQVCTLPPSREEMTKNQVSLSCAVKGFYPSDIAVEWESNGQPENNYKTTPPVLDSDGSFFLVSKLTVDKSRWQQGNVFSCSVMHEALHNHYTQKSLSLSPGAPAPAPAPAPAPAPAPAPAGSSWMEEVIKLCGRELVRAQIAICGMSTWS
B6: RELAX0084 (Fc fusion)
chain 1: B5 chain 1
chain 2: DKTHTCPPCPAPEFEGGPSVFLFPPKPKDTLMISRTPEVTCVVVDVSHEDPEVKFNWYVDGVEVHNAKTKPREEQYNSTYRVVSVLTVLHQDWLNGKEYKCKVSNKALPASIEKTISKAKGQPREPQVCTLPPSREEMTKNQVSLSCAVKGFYPSDIAVEWESNGQPENNYKTTPPVLDSDGSFFLVSKLTVDKSRWQQGNVFSCSVMHEALHNHYTQKSLSLSPGGGGGSGGGGSGGGGSGGGGGSSWMEEVIKLCGRELVRAQIAICGMSTWS
B7: RELAX0054 (Fc fusion)
chain 1: DKTHTCPPCPAPEFEGGPSVFLFPPKPKDTLMISRTPEVTCVVVDVSHEDPEVKFNWYVDGVEVHNAKTKPREEQYNSTYRVVSVLTVLHQDWLNGKEYKCKVSNKALPASIEKTISKAKGQPREPQVCTLPPSREEMTKNQVSLSCAVKGFYPSDIAVEWESNGQPENNYKTTPPVLDSDGSFFLVSKLTVDKSRWQQGNVFSCSVMHEALHNHYTQKSLSLSPGAAPAPAPAPAPAPAGSQLYSALANKCCHVGCTKRSLARFC
chain 2: B4 chain 2
B8: RELAX0083 (Fc fusion)
chain 1: DKTHTCPPCPAPEFEGGPSVFLFPPKPKDTLMISRTPEVTCVVVDVSHEDPEVKFNWYVDGVEVHNAKTKPREEQYNSTYRVVSVLTVLHQDWLNGKEYKCKVSNKALPASIEKTISKAKGQPREPQVYTLPPCREEMTKNQVSLWCLVKGFYPSDIAVEWESNGQPENNYKTTPPVLDSDGSFFLYSKLTVDKSRWQQGNVFSCSVMHEALHNHYTQKSLSLSPGGGGGGSQLYSALANKCCHVGCTKRSLARFC
chain 2: DKTHTCPPCPAPEFEGGPSVFLFPPKPKDTLMISRTPEVTCVVVDVSHEDPEVKFNWYVDGVEVHNAKTKPREEQYNSTYRVVSVLTVLHQDWLNGKEYKCKVSNKALPASIEKTISKAKGQPREPQVCTLPPSREEMTKNQVSLSCAVKGFYPSDIAVEWESNGQPENNYKTTPPVLDSDGSFFLVSKLTVDKSRWQQGNVFSCSVMHEALHNHYTQKSLSLSPGGGGGGSSWMEEVIKLCGRELVRAQIAICGMSTWS

human RXFP2, sequence (Q8WXD0 whole entry): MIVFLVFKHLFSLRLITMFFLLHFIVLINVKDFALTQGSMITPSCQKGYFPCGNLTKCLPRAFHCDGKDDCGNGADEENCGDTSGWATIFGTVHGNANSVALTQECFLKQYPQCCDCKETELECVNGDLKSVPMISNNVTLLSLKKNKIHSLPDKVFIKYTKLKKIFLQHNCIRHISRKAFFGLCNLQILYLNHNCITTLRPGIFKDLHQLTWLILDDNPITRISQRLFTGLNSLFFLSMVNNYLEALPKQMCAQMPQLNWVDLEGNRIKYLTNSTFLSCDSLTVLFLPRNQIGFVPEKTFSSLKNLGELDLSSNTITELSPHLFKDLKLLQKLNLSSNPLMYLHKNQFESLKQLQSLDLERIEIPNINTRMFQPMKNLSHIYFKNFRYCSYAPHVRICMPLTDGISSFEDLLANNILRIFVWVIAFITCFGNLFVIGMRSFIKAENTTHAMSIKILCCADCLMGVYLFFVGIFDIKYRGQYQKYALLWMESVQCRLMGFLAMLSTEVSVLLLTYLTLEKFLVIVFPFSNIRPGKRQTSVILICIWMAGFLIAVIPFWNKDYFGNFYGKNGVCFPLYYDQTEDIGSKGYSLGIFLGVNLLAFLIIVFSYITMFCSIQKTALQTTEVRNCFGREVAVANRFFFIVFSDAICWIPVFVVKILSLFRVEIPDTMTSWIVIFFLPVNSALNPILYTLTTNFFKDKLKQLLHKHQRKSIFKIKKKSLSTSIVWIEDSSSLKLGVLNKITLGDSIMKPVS

The first assay concerns the target T1, human RXFP1. Briefly: cell-based or functional assay.
As to B1, the “EC50 hRXFP1 (M), cAMP assay” value was 5.68e-11 M.

As for B2, the “EC50 hRXFP1 (M), cAMP assay” value was 1.88e-11 M.

For the molecule B3, the “EC50 hRXFP1 (M), cAMP assay” value worked out at 4.51e-11 M.

For B4, the “EC50 hRXFP1 (M), cAMP assay” value was 1.72e-09 M.

Regarding B5, the “EC50 hRXFP1 (M), cAMP assay” value stood at 3.87e-11 M.

For the molecule B6, the “EC50 hRXFP1 (M), cAMP assay” value came to 5.34e-11 M.

B7: the “EC50 hRXFP1 (M), cAMP assay” value came to 2.89e-11 M.

Turning to B8, the “EC50 hRXFP1 (M), cAMP assay” value came out at 2.81e-11 M.

Another assay deals with T2, mouse RXFP1. Briefly: cell-based or functional assay.
With B1, the “EC50 mRXFP1 (M), cAMP assay” value is 4.9e-11 M.

B2: the “EC50 mRXFP1 (M), cAMP assay” value was 1.51e-11 M.

Consider B3, for which the “EC50 mRXFP1 (M), cAMP assay” value worked out at 4.73e-11 M.

Turning to B4, the “EC50 mRXFP1 (M), cAMP assay” value came to 8.22e-10 M.

Regarding B5, the “EC50 mRXFP1 (M), cAMP assay” value was 3.27e-11 M.

For the molecule B6, the “EC50 mRXFP1 (M), cAMP assay” value worked out at 3.48e-11 M.

Turning to B7, the “EC50 mRXFP1 (M), cAMP assay” value is 1.59e-11 M.

B8: the “EC50 mRXFP1 (M), cAMP assay” value stood at 1.34e-11 M.

Another assay addresses human RXFP2 (human, UniProt Q8WXD0 1-754). As to the kind of experiment: cell-based or functional assay.
On to B1, for which the “EC50 hRXFP2 (M), cAMP assay” value came to 3.81e-08 M.

On to B2, for which the “EC50 hRXFP2 (M), cAMP assay” value worked out at 3.39e-08 M.

With B3, the “EC50 hRXFP2 (M), cAMP assay” value amounted to 4.92e-08 M.

Regarding B5, the “EC50 hRXFP2 (M), cAMP assay” value was 6.48e-08 M.

For B6, the “EC50 hRXFP2 (M), cAMP assay” value was determined as 1.2e-08 M.

Take B7: the “EC50 hRXFP2 (M), cAMP assay” value was 1.53e-08 M.

Consider B8, for which the “EC50 hRXFP2 (M), cAMP assay” value turned out to be 2.42e-08 M.
